The text below walks through data of patent publication US20220251194A1 (Merck Sharp & Dohme, published 2022).

The term Kd denotes the concentration at which binding is half-saturated.

In experiment [1] the target is T1, Human PD1 (50AFR), [VEGF leader]-Sino-Bio-PD-1_H-[His9G] (human, UniProt Q15116 25-167).
T1 construct: Expressed with a VEGF leader; also called PD-1-His (50AFR)
The experiment can be described thus: SPR sequential antigen injections on captured TsAb; this antigen injected 2nd. How it is done: (§1) Sample pre-mixes were injected to cover all six sequential combinations of the three antigens. Injection of pre-mixes in appropriate order (e.g., pre-mix 1->4->7, premix 2->6->7, premix 3->5->7) helped to maintain antigen activities from first and second injections and near saturation of the occupied sites in case of notable dissociation. On a Biacore T200, the first two injections were made using the dual inject mode and the third was made using normal injection mode (the difference is extra time between second and third injections). It is possible that antigens themselves could self-associate or interact with one another in the pre-mixes but for simplicity of interpretation, we assumed that to be unlikely or insignificant.
(§2) Each subsequent upward shift in the signal upon premix injection indicates binding of an antigen to an unoccupied site. Typical % BC for a fully occupied site can range from ˜70% to ˜120% due to matrix effects, MW variations (e.g., glycosylation), fast dissociation, nonspecific binding, reagent quality (e.g., aggregation), etc. The % BC indicated in the figures show good overall binding capacity for the three antigens with somewhat higher % BC for the first binder.

Experiment [2] concerns the target T2, TIGIT-His (87AGX), [SLAM Leader]-TIGIT_H-[His9G] (human, UniProt Q495A1 22-141).
T2 construct: Expressed with a SLAM leader
T2 sequence (looked up): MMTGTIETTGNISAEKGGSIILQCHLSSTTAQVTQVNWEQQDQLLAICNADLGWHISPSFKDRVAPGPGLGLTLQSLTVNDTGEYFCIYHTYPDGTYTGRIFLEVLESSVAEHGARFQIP
The description is as above. Here is the method: as §1, §2

The target of experiment [3] is T1, Human PD1 (50AFR), [VEGF …. The experiment can be described thus: SPR (Biacore T200 or 4000), antibody captured via anti-human Fc, antigen as analyte. How it is done: (§3) Binding affinities were measured using a Biacore T200 or Biacore 4000 biosensor (GE Healthcare, Chicago, Ill.). The following running buffer, 10 mM HEPES, 150 mM NaCl, 0.05% v/v Surfactant P20, 3 mM EDTA (GE Healthcare, BR100669, Chicago, Ill.), was used for immobilization, sample dilution and data collection. All experiments were performed at 25° C. Antigen binding to antibodies captured via an anti-human Fc antibody was measured using a Series S Sensor Chip CM5 (GE Healthcare, 29149603, Chicago, Ill.). An anti-human Fc antibody was immobilized on all surfaces of the chip according to the instructions in the Human Antibody Capture Kit (GE Healthcare, BR100839, Chicago, Ill.) and the Amine Coupling Kit (GE Healthcare, BR100633, Chicago, Ill.). […] After the antigen injections the dissociation of the interaction was monitored for 15 minutes. Between binding cycles the antibody and antigen were removed from the chip with a 30 second injection of 3 M MgCl₂.
(§4) The data were processed and fit using Biacore T200 Evaluation Software version 2.0 or Biacore 4000 Evaluation Software version 1.1 (GE Healthcare, Chicago, Ill.). The data were “double referenced” by subtracting the response from a negative control flowcell and subtracting the response from a buffer injection or the average response from two buffer injections. The data were then fit with the ‘1:1 Binding’ model to determine the association rate constant, kₐ (M⁻¹s⁻¹, where “M” equals molar and “s” equals seconds) and the dissociation rate constant, kd (s⁻¹). These rate constants were used to calculate the equilibrium dissociation constant, KD (M)=[…].
In general terms: Surface plasmon resonance follows binding to a sensor surface in real time, without labels.

In the next experiment the target is T3, human TIGIT (94AGV) (human, UniProt Q495A1 22-141, limits assumed).
T3 construct: Lot 94AGV is not described further
T3 sequence (looked up): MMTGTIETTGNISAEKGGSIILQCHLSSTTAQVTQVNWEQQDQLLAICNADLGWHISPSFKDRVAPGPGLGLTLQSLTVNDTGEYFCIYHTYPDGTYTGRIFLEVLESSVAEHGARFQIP
The description is as above. How it is done: as §3, §4

In the next experiment the target is T4, human LAG-3 (60AXE) (human, UniProt P18627 23-450, limits assumed).
T4 construct: Lot 60AXE is not described further
T4 sequence (looked up): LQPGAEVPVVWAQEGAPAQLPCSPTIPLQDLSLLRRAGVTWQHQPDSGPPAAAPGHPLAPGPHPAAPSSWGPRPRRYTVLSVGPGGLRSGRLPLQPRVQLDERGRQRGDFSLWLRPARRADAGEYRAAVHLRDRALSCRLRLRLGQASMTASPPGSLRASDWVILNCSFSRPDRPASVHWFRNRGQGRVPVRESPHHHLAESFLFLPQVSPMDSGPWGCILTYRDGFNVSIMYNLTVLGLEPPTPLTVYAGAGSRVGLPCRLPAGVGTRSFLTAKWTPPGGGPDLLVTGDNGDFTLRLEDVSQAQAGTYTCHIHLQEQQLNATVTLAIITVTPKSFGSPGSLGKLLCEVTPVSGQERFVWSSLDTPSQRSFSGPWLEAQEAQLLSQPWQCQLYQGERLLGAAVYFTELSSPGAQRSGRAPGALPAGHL
Described as above. Here is the method: as §3, §4

The target in experiment [4] is T5, LAG3-His (66AKO), [VEGF leader]-LAG3_H-[His9G] (human, UniProt P18627 23-450).
T5 construct: Expressed with a VEGF leader
T5 sequence (looked up): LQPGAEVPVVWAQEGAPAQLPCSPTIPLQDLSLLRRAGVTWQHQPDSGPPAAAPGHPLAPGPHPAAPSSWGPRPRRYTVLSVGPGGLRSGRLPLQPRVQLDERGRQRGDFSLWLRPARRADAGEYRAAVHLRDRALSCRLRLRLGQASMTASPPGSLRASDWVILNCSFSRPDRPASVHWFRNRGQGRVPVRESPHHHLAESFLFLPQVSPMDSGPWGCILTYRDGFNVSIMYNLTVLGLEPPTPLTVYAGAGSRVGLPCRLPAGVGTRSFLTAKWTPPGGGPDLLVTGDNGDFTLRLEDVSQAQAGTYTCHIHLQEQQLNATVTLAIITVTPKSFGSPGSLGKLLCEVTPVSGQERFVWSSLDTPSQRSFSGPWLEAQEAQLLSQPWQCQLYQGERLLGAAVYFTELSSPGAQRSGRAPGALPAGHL
The experiment can be described thus: SPR sequential antigen injections on captured TsAb; this antigen injected 1st. How it is done:
as §1, §2

T1 sequence (Q15116 25-167): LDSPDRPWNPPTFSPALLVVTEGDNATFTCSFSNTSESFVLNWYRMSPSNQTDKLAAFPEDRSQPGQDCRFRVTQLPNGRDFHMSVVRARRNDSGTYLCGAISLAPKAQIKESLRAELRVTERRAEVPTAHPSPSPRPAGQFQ

B1: Anti-PD-1/LAG-3/TIGIT trispecific antibody (TsAb) (Lot 83BCN or 51AVW) (other)
heavy 1: EVQLVQSGAEVKKPGASVKVSCKASGYTFTSYYLYWVRQAPGQGLEWIGGVNPSNAGTNFNEKFKSRVTLTVDTSISTAYMELSRLRSDDTAVYYCTRRLSHYDGGFDYWGQGTTVTVSSASTKGPSVFPLAPSSKSTSGGTAALGCEVTDYFPEPVTVSWNSGALTSGVHTFPAVLESSGLYSLLSVVTVPSSSLGTQTYICNVNHKPSNTKVDKKVEPKSCDKTHTCPPCPAPEAAGGPSVFLFPPKPKDTLMISRTPEVTCVVVSVSHEDPEVKFNWYVDGVEVHNAKTKPREEQYNSTYRVVSVLTVLHQDWLNGKEYKCKVSNKALPAPIEKTISKAKGQPREPQVYVYPPSRDELTKNQVSLTCLVKGFYPSDIAVEWESNGQPENNYKTTPPVLDSDGSFALVSKLTVDKSRWQQGNVFSCSVMHEALHNHYTQKSLSLSPGGGGSGGGSGGGSGGGSDIQMTQSPSSLSASVGDRVTITCRASEHIYSYLSWYQQKPGKVPKLLIYNAKTLAEGVPSRFSGSGSGTDFTLTISSLQPEDVATYYCQHHFGSPLTFGQGTRLEIKGGSSRSSSSGGGGSGGGGSGSEVQLVQSGAEVKKPGSSVKVSCKASGYTFSSYVMHWVRQAPGQGLEWIGYIDPYNDGAKYAQKFQGRVTLTSDKSTSTAYMELSSLRSEDTAVYYCARGGPYGWYFDVWGQGTTVTVSS
light 1: DIVMTQTPLSLSVTPGQPASISCRASKSVSTSGFSYLHWYLQKPGQPPQLLIFLSKYRSSGVPDRFSGSGSGTDFTLKISRVEAEDVGVYYCSQAYHLPLTFGQGTKLEIKRTVAAPSVFIFPPSDERLKSGTASVVCLLNNFYPREAKVQWKVDNALQSGNSQESVTEQDSKDSTYSLSSRLTLSKADYEKHKVYACEVTHQGLSSPVTKSFNRGEC
heavy 2: QMQLVQSGPEVKKPGTSVKVSCKASGYTFTDYNVDWVRQARGQRLEWIGDINPNDGGTIYAQKFQERVTITVDKSTSTAYMELSSLRSEDTAVYYCARNYRWFGAMDHWGQGTTVTVSSASTKGPSVFPLAPSSKSTSGGTAALGCLVKDYFPEPVTVSWNSGALTSGVHTFPAVLQSSGLYKLSSVVTVPSSSLGTQTYICNVNHKPSNTKVDKKVEPKSCDKTHTCPPCPAPEAAGGPSVFLFPPKPKDTLMISRTPEVTCVVVSVSHEDPEVKFNWYVDGVEVHNAKTKPREEQYNSTYRVVSVLTVLHQDWLNGKEYKCKVSNKALPAPIEKTISKAKGQPREPQVYVLPPSRDELTKNQVSLLCLVKGFYPSDIAVEWESNGQPENNYLTWPPVLDSDGSFFLYSKLTVDKSRWQQGNVFSCSVMHEALHNHYTQKSLSLSPGGGGSGGGSGGGSGGGSDIQMTQSPSSLSASVGDRVTITCRASEHIYSYLSWYQQKPGKVPKLLIYNAKTLAEGVPSRFSGSGSGTDFTLTISSLQPEDVATYYCQHHFGSPLTFGQGTRLEIKGGSSRSSSSGGGGSGGGGSGSEVQLVQSGAEVKKPGSSVKVSCKASGYTFSSYVMHWVRQAPGQGLEWIGYIDPYNDGAKYAQKFQGRVTLTSDKSTSTAYMELSSLRSEDTAVYYCARGGPYGWYFDVWGQGTTVTVSS
light 2: DIVMTQTPLSLSVTPGQPASISCKASQSLDYEGDSDMNWYLQKPGQPPQLLIYGASNLESGVPDRFSGSGSGTDFTLKISRVEAEDVGVYYCQQSTEDPRTFGGGTKVEIKRTVAAPSVFIFPPSDEELKSGTATVVCLLNNFYPREAKVQWKVDNALQSGNSQESVTEQDSKDSTYSLSSYLELSKADYEKHKVYACEVTHQGLSSPVTKSFNRGEC
notes: Trispecific heterodimeric IgG1 / kappa; It has one site for PD1, one for LAG3 and two for TIGIT; also called Hz x Hu [PD-1]; [TIGIT]; [LAG3]; TsAb; Anti-human PD1/TIGIT/LAG3 TsAb
Turning to B1, the “% BC (estimated % binding capacity)” value in experiment [1] was 74%; in experiment [2], 90%; in experiment [4], 102%. The values for the Kd (in experiment [3]; with human TIGIT (94AGV); with human LAG-3 (60AXE)) were 0.15 nM, 0.64 nM and 0.0015 nM, respectively.
